*1 amine or outer side, *2 acyl side, *3 side chain or, on linkers, in order; H or OH if unused. Where no end group is shown, it is not given here. Side-chain parts run from the residue outwards. [ ]: non-standard residue; d: D form. The star is where a group is joined. C18 diacid = O=C(O)CCCCCCCCCCCCCCCCC(=O)*; C16 diacid = O=C(O)CCCCCCCCCCCCCCC(=O)*; γGlu = O=C(O)[C@H](CCC(=O)[*:2])N[*:1]; NMeI = CC[C@H](C)[C@H](NC)C(=O)O; Pentanoyl = CCCCC(=O)*; AEEA = NCCOCCOCC(=O)O; Aib = CC(C)(N)C(=O)O
T1: CRF1R receptor (UniProt P34998 24-415, limits assumed)
T1 sequence (looked up): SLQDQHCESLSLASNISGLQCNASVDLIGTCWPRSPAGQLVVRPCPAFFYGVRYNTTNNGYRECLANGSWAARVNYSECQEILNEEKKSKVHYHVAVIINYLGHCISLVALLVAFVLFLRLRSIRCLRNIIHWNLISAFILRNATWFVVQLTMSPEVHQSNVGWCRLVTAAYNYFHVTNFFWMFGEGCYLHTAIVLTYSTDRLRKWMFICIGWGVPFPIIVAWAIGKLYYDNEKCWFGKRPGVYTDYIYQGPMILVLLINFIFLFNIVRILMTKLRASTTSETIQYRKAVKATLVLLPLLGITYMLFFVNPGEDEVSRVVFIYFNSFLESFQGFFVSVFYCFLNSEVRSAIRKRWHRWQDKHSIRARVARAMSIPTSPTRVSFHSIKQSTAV


Columns and labels:
[1] = target: human corticotropin-releasing factor 2a (CRF2a receptor) (human), Q13324; assay: cell-based or functional assay
human corticotropin-releasing factor 2a (CRF2a receptor) (human), Q13324, sequence (Q13324 20-411): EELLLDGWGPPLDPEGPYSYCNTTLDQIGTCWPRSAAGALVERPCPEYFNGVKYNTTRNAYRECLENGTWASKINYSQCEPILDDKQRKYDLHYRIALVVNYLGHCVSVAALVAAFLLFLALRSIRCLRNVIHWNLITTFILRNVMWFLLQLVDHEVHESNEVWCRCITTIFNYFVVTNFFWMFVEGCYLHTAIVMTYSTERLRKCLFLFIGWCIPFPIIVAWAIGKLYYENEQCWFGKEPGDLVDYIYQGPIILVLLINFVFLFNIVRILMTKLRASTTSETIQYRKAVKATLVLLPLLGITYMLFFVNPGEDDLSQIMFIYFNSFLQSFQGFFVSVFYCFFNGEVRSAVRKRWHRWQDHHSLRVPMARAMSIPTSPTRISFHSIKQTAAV

CRF1R receptor = target: T1, CRF1R receptor; assay: cell-based or functional assay

Row | Binder | EC50 [nM] (cAMP) [1] | Emax (% I) (CRF1R receptor)
1 | Pentanoyl-VLSLD[dV]PIKLK([AEEA-AEEA-γGlu-C18 diacid])KILLEQEKQKKQREQAETN[Aib]QILAQV-NH2 (SMILES CCCCC(=O)N[C@H](C(=O)N[C@@H](CC(C)C)C(=O)N[C@@H](CO)C(=O)N[C@@H](CC(C)C)C(=O)N[C@@H](CC(=O)O)C(=O)N[C@@H](C(=O)N1CCC[C@H]1C(=O)N[C@H](C(=O)N[C@@H](CCCCN)C(=O)N[C@@H](CC(C)C)C(=O)N[C@@H](CCCCNC(=O)COCCOCCNC(=O)COCCOCCNC(=O)CC[C@H](NC(=O)CCCCCCCCCCCCCCCCC(=O)O)C(=O)O)C(=O)N[C@@H](CCCCN)C(=O)N[C@H](C(=O)N[C@@H](CC(C)C)C(=O)N[C@@H](CC(C)C)C(=O)N[C@@H](CCC(=O)O)C(=O)N[C@@H](CCC(N)=O)C(=O)N[C@@H](CCC(=O)O)C(=O)N[C@@H](CCCCN)C(=O)N[C@@H](CCC(N)=O)C(=O)N[C@@H](CCCCN)C(=O)N[C@@H](CCCCN)C(=O)N[C@@H](CCC(N)=O)C(=O)N[C@@H](CCCNC(=N)N)C(=O)N[C@@H](CCC(=O)O)C(=O)N[C@@H](CCC(N)=O)C(=O)N[C@@H](C)C(=O)N[C@@H](CCC(=O)O)C(=O)N[C@H](C(=O)N[C@@H](CC(N)=O)C(=O)NC(C)(C)C(=O)N[C@@H](CCC(N)=O)C(=O)N[C@H](C(=O)N[C@@H](CC(C)C)C(=O)N[C@@H](C)C(=O)N[C@@H](CCC(N)=O)C(=O)N[C@H](C(N)=O)C(C)C)[C@@H](C)CC)[C@@H](C)O)[C@@H](C)CC)[C@@H](C)CC)C(C)C)C(C)C) [SEQ ID NO 120] | 1.33 nM | 3%
2 | [NMeI]VLSLD[dV]PIKLK([AEEA-AEEA-γGlu-C18 diacid])KILLEQEKQKKQREQAETN[Aib]QILAQV-NH2 (N-terminus assumed; SMILES CC[C@H](C)[C@H](NC)C(=O)N[C@H](C(=O)N[C@@H](CC(C)C)C(=O)N[C@@H](CO)C(=O)N[C@@H](CC(C)C)C(=O)N[C@@H](CC(=O)O)C(=O)N[C@@H](C(=O)N1CCC[C@H]1C(=O)N[C@H](C(=O)N[C@@H](CCCCN)C(=O)N[C@@H](CC(C)C)C(=O)N[C@@H](CCCCNC(=O)COCCOCCNC(=O)COCCOCCNC(=O)CC[C@H](NC(=O)CCCCCCCCCCCCCCCCC(=O)O)C(=O)O)C(=O)N[C@@H](CCCCN)C(=O)N[C@H](C(=O)N[C@@H](CC(C)C)C(=O)N[C@@H](CC(C)C)C(=O)N[C@@H](CCC(=O)O)C(=O)N[C@@H](CCC(N)=O)C(=O)N[C@@H](CCC(=O)O)C(=O)N[C@@H](CCCCN)C(=O)N[C@@H](CCC(N)=O)C(=O)N[C@@H](CCCCN)C(=O)N[C@@H](CCCCN)C(=O)N[C@@H](CCC(N)=O)C(=O)N[C@@H](CCCNC(=N)N)C(=O)N[C@@H](CCC(=O)O)C(=O)N[C@@H](CCC(N)=O)C(=O)N[C@@H](C)C(=O)N[C@@H](CCC(=O)O)C(=O)N[C@H](C(=O)N[C@@H](CC(N)=O)C(=O)NC(C)(C)C(=O)N[C@@H](CCC(N)=O)C(=O)N[C@H](C(=O)N[C@@H](CC(C)C)C(=O)N[C@@H](C)C(=O)N[C@@H](CCC(N)=O)C(=O)N[C@H](C(N)=O)C(C)C)[C@@H](C)CC)[C@@H](C)O)[C@@H](C)CC)[C@@H](C)CC)C(C)C)C(C)C) [SEQ ID NO 118] | 0.6 nM | 7%
3 | Pentanoyl-VLSLD[dV]PIKLK([γGlu-C16 diacid])KILLEQEKQKKQREQAETN[Aib]QILAQV-NH2 (SMILES CCCCC(=O)N[C@H](C(=O)N[C@@H](CC(C)C)C(=O)N[C@@H](CO)C(=O)N[C@@H](CC(C)C)C(=O)N[C@@H](CC(=O)O)C(=O)N[C@@H](C(=O)N1CCC[C@H]1C(=O)N[C@H](C(=O)N[C@@H](CCCCN)C(=O)N[C@@H](CC(C)C)C(=O)N[C@@H](CCCCNC(=O)CC[C@H](NC(=O)CCCCCCCCCCCCCCC(=O)O)C(=O)O)C(=O)N[C@@H](CCCCN)C(=O)N[C@H](C(=O)N[C@@H](CC(C)C)C(=O)N[C@@H](CC(C)C)C(=O)N[C@@H](CCC(=O)O)C(=O)N[C@@H](CCC(N)=O)C(=O)N[C@@H](CCC(=O)O)C(=O)N[C@@H](CCCCN)C(=O)N[C@@H](CCC(N)=O)C(=O)N[C@@H](CCCCN)C(=O)N[C@@H](CCCCN)C(=O)N[C@@H](CCC(N)=O)C(=O)N[C@@H](CCCNC(=N)N)C(=O)N[C@@H](CCC(=O)O)C(=O)N[C@@H](CCC(N)=O)C(=O)N[C@@H](C)C(=O)N[C@@H](CCC(=O)O)C(=O)N[C@H](C(=O)N[C@@H](CC(N)=O)C(=O)NC(C)(C)C(=O)N[C@@H](CCC(N)=O)C(=O)N[C@H](C(=O)N[C@@H](CC(C)C)C(=O)N[C@@H](C)C(=O)N[C@@H](CCC(N)=O)C(=O)N[C@H](C(N)=O)C(C)C)[C@@H](C)CC)[C@@H](C)O)[C@@H](C)CC)[C@@H](C)CC)C(C)C)C(C)C) [SEQ ID NO 80] | 0.35 nM | 10%
4 | [NMeI]VLSLD[dV]PIKLK([γGlu-C16 diacid])KILLEQEKQKKQREQAETN[Aib]QILAQV-NH2 (N-terminus assumed; SMILES CC[C@H](C)[C@H](NC)C(=O)N[C@H](C(=O)N[C@@H](CC(C)C)C(=O)N[C@@H](CO)C(=O)N[C@@H](CC(C)C)C(=O)N[C@@H](CC(=O)O)C(=O)N[C@@H](C(=O)N1CCC[C@H]1C(=O)N[C@H](C(=O)N[C@@H](CCCCN)C(=O)N[C@@H](CC(C)C)C(=O)N[C@@H](CCCCNC(=O)CC[C@H](NC(=O)CCCCCCCCCCCCCCC(=O)O)C(=O)O)C(=O)N[C@@H](CCCCN)C(=O)N[C@H](C(=O)N[C@@H](CC(C)C)C(=O)N[C@@H](CC(C)C)C(=O)N[C@@H](CCC(=O)O)C(=O)N[C@@H](CCC(N)=O)C(=O)N[C@@H](CCC(=O)O)C(=O)N[C@@H](CCCCN)C(=O)N[C@@H](CCC(N)=O)C(=O)N[C@@H](CCCCN)C(=O)N[C@@H](CCCCN)C(=O)N[C@@H](CCC(N)=O)C(=O)N[C@@H](CCCNC(=N)N)C(=O)N[C@@H](CCC(=O)O)C(=O)N[C@@H](CCC(N)=O)C(=O)N[C@@H](C)C(=O)N[C@@H](CCC(=O)O)C(=O)N[C@H](C(=O)N[C@@H](CC(N)=O)C(=O)NC(C)(C)C(=O)N[C@@H](CCC(N)=O)C(=O)N[C@H](C(=O)N[C@@H](CC(C)C)C(=O)N[C@@H](C)C(=O)N[C@@H](CCC(N)=O)C(=O)N[C@H](C(N)=O)C(C)C)[C@@H](C)CC)[C@@H](C)O)[C@@H](C)CC)[C@@H](C)CC)C(C)C)C(C)C) [SEQ ID NO 64] | 0.19 nM | 4%
